Measurements from publication PMC9352680, “A comprehensive thermodynamic model for RNA binding by the Saccharomyces cerevisiae Pumilio protein PUF4”.

T1: PUF4 RNA-binding domain (Saccharomyces cerevisiae, UniProt P25339 537-888)
T1 sequence: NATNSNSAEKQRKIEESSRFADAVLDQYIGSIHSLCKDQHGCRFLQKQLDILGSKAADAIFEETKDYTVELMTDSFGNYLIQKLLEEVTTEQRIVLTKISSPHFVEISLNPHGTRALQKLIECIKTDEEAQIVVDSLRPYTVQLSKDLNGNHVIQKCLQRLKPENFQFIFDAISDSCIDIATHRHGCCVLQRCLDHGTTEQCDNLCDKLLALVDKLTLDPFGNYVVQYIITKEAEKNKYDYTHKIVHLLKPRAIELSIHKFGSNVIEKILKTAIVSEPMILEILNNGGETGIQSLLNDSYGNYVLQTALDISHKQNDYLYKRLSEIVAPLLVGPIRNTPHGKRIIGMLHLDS


Target: T1, PUF4 RNA-binding domain
Assay: Mg; RNA-MaP; 20 mM Na-HEPES pH 7.4, 30 mM KOAc, 0.75 mM MgCl2, 0.1% Tween-20, 5% glycerol, 0.1 mg/mL BSA, 2 mM DTT; 25 C; 0.0125-409.6 nM protein
Conditions: tags: N-His6-TEV cleaved; C-SNAP kept, Cy3B-labelled; label: tethered on chip by stalled RNA polymerase

Binder	Kd [nM]
UCUCUUUAUGUAUUAUUAAUUCUCUU (ssRNA) [Id_ii_S1_P5E.2_K5.1_C5.2_[C-2T]_[T-1A]_H5.1_A5.1_F5.1_T5.2_[T11A]_[A12T]]	10.6
UCUCUUCGUGUAUUAUUAAAUCUCUU (ssRNA) [Id_ii_S1_P5E.2_K5.1_C5.2_[T-1G]_H5.1_A5.1_F5.1_T5.2_[T11A]]	15
UCUCUUUGUACACUAUCUCUU (ssRNA) [Ib_S1_P4E.1_K4.1_C4.1_H4.1_A4.1_[T5C]_[T7C]_F4.1_T4.1]	0.824
UCUCUUACUGUAUUAUUAAUUCUCUU (ssRNA) [Id_ii_S1_P5E.2_K5.1_C5.2_[C-2A]_[T-1C]_H5.1_A5.1_F5.1_T5.2_[T11A]_[A12T]]	12.5
UCUCUUUGUAAAGUAUCUCUU (ssRNA) [Ic_S1_P4E.1_K4.1_C4.1_H4.1_A4.1_[T5A]_[T7G]_F4.1_T4.1]	7.21
UCUCUUCCUGUAUUAUUAUCUCUCUU (ssRNA) [Id_ii_S1_P5E.2_K5.1_C5.2_[T-1C]_H5.1_A5.1_F5.1_T5.2_[A12C]]	6.56
UCUCUUUCUGUAUUAUUAUGUCUCUU (ssRNA) [Id_ii_S1_P5E.2_K5.1_C5.2_[C-2T]_[T-1C]_H5.1_A5.1_F5.1_T5.2_[A12G]]	5.28
UCUCUUACUGUAUUAUUAUCUCUCUU (ssRNA) [Id_ii_S1_P5E.2_K5.1_C5.2_[C-2A]_[T-1C]_H5.1_A5.1_F5.1_T5.2_[A12C]]	9.38
UCUCUUAUUGUAUUAUUAUCUCUCUU (ssRNA) [Id_ii_S1_P5E.2_K5.1_C5.2_[C-2A]_H5.1_A5.1_F5.1_T5.2_[A12C]]	6.61
UCUCUUCGUGUAUUAUUAUUUCUCUU (ssRNA) [Id_ii_S1_P5E.2_K5.1_C5.2_[T-1G]_H5.1_A5.1_F5.1_T5.2_[A12T]]	7.48
UCUCUUAUUGUAUUAUUAACUCUCUU (ssRNA) [Id_ii_S1_P5E.2_K5.1_C5.2_[C-2A]_H5.1_A5.1_F5.1_T5.2_[T11A]_[A12C]]	11.1
UCUCUUGUUGUAUUAUUAAUUCUCUU (ssRNA) [Id_ii_S1_P5E.2_K5.1_C5.2_[C-2G]_H5.1_A5.1_F5.1_T5.2_[T11A]_[A12T]]	9.79
UCUCUUAUUGUAUUAUUAGCUCUCUU (ssRNA) [Id_ii_S1_P5E.2_K5.1_C5.2_[C-2A]_H5.1_A5.1_F5.1_T5.2_[T11G]_[A12C]]	4.53
UCUCUUAUUGUAUUAUUAUGUCUCUU (ssRNA) [Id_ii_S1_P5E.2_K5.1_C5.2_[C-2A]_H5.1_A5.1_F5.1_T5.2_[A12G]]	10.1
UCUCUUCGUGUAUUAUUAACUCUCUU (ssRNA) [Id_ii_S1_P5E.2_K5.1_C5.2_[T-1G]_H5.1_A5.1_F5.1_T5.2_[T11A]_[A12C]]	12.5
UCUCUUCCUGUAUUAUUAAAUCUCUU (ssRNA) [Id_ii_S1_P5E.2_K5.1_C5.2_[T-1C]_H5.1_A5.1_F5.1_T5.2_[T11A]]	18.8
UCUCUUUCUGUAUUAUUAAGUCUCUU (ssRNA) [Id_ii_S1_P5E.2_K5.1_C5.2_[C-2T]_[T-1C]_H5.1_A5.1_F5.1_T5.2_[T11A]_[A12G]]	11.5
UCUCUUAUUGUAUUAUUAAAUCUCUU (ssRNA) [Id_ii_S1_P5E.2_K5.1_C5.2_[C-2A]_H5.1_A5.1_F5.1_T5.2_[T11A]]	13.4
UCUCUUUAUGUAUUAUUAGUUCUCUU (ssRNA) [Id_ii_S1_P5E.2_K5.1_C5.2_[C-2T]_[T-1A]_H5.1_A5.1_F5.1_T5.2_[T11G]_[A12T]]	4.38
UCUCUUUUUGUAUUAUUAAUUCUCUU (ssRNA) [Id_ii_S1_P5E.2_K5.1_C5.2_[C-2T]_H5.1_A5.1_F5.1_T5.2_[T11A]_[A12T]]	8.7
UCUCUUUUUGUAUUAUUAGCUCUCUU (ssRNA) [Id_ii_S1_P5E.2_K5.1_C5.2_[C-2T]_H5.1_A5.1_F5.1_T5.2_[T11G]_[A12C]]	4.26

Binder	Kd [nM]
UCUCUUUGUAUUAAUAUCUCUU (ssRNA) [Ia_S1_P5E.1_K5.1_C5.1_H5.1_A5.1_F5.1_[T8A]_T5.1]	9.4
UCUCUUUGUGUAUUAUUAAUUCUCUU (ssRNA) [Id_ii_S1_P5E.2_K5.1_C5.2_[C-2T]_[T-1G]_H5.1_A5.1_F5.1_T5.2_[T11A]_[A12T]]	4.68
UCUCUUUGUAAACUAUCUCUU (ssRNA) [Ic_S1_P4E.1_K4.1_C4.1_H4.1_A4.1_[T5A]_[T7C]_F4.1_T4.1]	2.01
UCUCUUCGUGUAUUAUUAUCUCUCUU (ssRNA) [Id_ii_S1_P5E.2_K5.1_C5.2_[T-1G]_H5.1_A5.1_F5.1_T5.2_[A12C]]	7.38
UCUCUUACUGUAUUAUUAUGUCUCUU (ssRNA) [Id_ii_S1_P5E.2_K5.1_C5.2_[C-2A]_[T-1C]_H5.1_A5.1_F5.1_T5.2_[A12G]]	8.64
UCUCUUGUUGUAUUAUUAUUUCUCUU (ssRNA) [Id_ii_S1_P5E.2_K5.1_C5.2_[C-2G]_H5.1_A5.1_F5.1_T5.2_[A12T]]	6.28
UCUCUUACUGUAUUAUUAAAUCUCUU (ssRNA) [Id_ii_S1_P5E.2_K5.1_C5.2_[C-2A]_[T-1C]_H5.1_A5.1_F5.1_T5.2_[T11A]]	23.8
UCUCUUUUUGUAUUAUUAAAUCUCUU (ssRNA) [Id_ii_S1_P5E.2_K5.1_C5.2_[C-2T]_H5.1_A5.1_F5.1_T5.2_[T11A]]	16.4
UCUCUUAUUGUAUUAUUAUUUCUCUU (ssRNA) [Id_ii_S1_P5E.2_K5.1_C5.2_[C-2A]_H5.1_A5.1_F5.1_T5.2_[A12T]]	5.93
UCUCUUUUUGUAUUAUUAUGUCUCUU (ssRNA) [Id_ii_S1_P5E.2_K5.1_C5.2_[C-2T]_H5.1_A5.1_F5.1_T5.2_[A12G]]	7.22
UCUCUUUUUGUAUUAUUAAGUCUCUU (ssRNA) [Id_ii_S1_P5E.2_K5.1_C5.2_[C-2T]_H5.1_A5.1_F5.1_T5.2_[T11A]_[A12G]]	17
UCUCUUUUUGUAUUAUUAGUUCUCUU (ssRNA) [Id_ii_S1_P5E.2_K5.1_C5.2_[C-2T]_H5.1_A5.1_F5.1_T5.2_[T11G]_[A12T]]	3.49
UCUCUUUUUGUAUUAUUAACUCUCUU (ssRNA) [Id_ii_S1_P5E.2_K5.1_C5.2_[C-2T]_H5.1_A5.1_F5.1_T5.2_[T11A]_[A12C]]	8.08
UCUCUUCCUGUAUUAUUAACUCUCUU (ssRNA) [Id_ii_S1_P5E.2_K5.1_C5.2_[T-1C]_H5.1_A5.1_F5.1_T5.2_[T11A]_[A12C]]	7.24
UCUCUUUUUGUAUUAUUAUCUCUCUU (ssRNA) [Id_ii_S1_P5E.2_K5.1_C5.2_[C-2T]_H5.1_A5.1_F5.1_T5.2_[A12C]]	5.34
UCUCUUGUUGUAUUAUUAUCUCUCUU (ssRNA) [Id_ii_S1_P5E.2_K5.1_C5.2_[C-2G]_H5.1_A5.1_F5.1_T5.2_[A12C]]	6.74
UCUCUUACUGUAUUAUUAUUUCUCUU (ssRNA) [Id_ii_S1_P5E.2_K5.1_C5.2_[C-2A]_[T-1C]_H5.1_A5.1_F5.1_T5.2_[A12T]]	8.56
UCUCUUUUUGUAUUAUUAUUUCUCUU (ssRNA) [Id_ii_S1_P5E.2_K5.1_C5.2_[C-2T]_H5.1_A5.1_F5.1_T5.2_[A12T]]	10.2
UCUCUUUGUGUAUUAUUAACUCUCUU (ssRNA) [Id_ii_S1_P5E.2_K5.1_C5.2_[C-2T]_[T-1G]_H5.1_A5.1_F5.1_T5.2_[T11A]_[A12C]]	3.86
UCUCUUUGUGUAUUAUUAGUUCUCUU (ssRNA) [Id_ii_S1_P5E.2_K5.1_C5.2_[C-2T]_[T-1G]_H5.1_A5.1_F5.1_T5.2_[T11G]_[A12T]]	2.43
UCUCUUUCUGUAUUAUUAACUCUCUU (ssRNA) [Id_ii_S1_P5E.2_K5.1_C5.2_[C-2T]_[T-1C]_H5.1_A5.1_F5.1_T5.2_[T11A]_[A12C]]	5.78

Binder	Kd [nM]
UCUCUUUGUGUAUUAUUAUUUCUCUU (ssRNA) [Id_ii_S1_P5E.2_K5.1_C5.2_[C-2T]_[T-1G]_H5.1_A5.1_F5.1_T5.2_[A12T]]	3.95
UCUCUUUGUAAAAUAUCUCUU (ssRNA) [Ic_S1_P4E.1_K4.1_C4.1_H4.1_A4.1_[T5A]_[T7A]_F4.1_T4.1]	3.38
UCUCUUUAUGUAUUAUUAAAUCUCUU (ssRNA) [Id_ii_S1_P5E.2_K5.1_C5.2_[C-2T]_[T-1A]_H5.1_A5.1_F5.1_T5.2_[T11A]]	16.8
UCUCUUUCUGUAUUAUUAUUUCUCUU (ssRNA) [Id_ii_S1_P5E.2_K5.1_C5.2_[C-2T]_[T-1C]_H5.1_A5.1_F5.1_T5.2_[A12T]]	5.27
UCUCUUUAUGUAUUAUUAUCUCUCUU (ssRNA) [Id_ii_S1_P5E.2_K5.1_C5.2_[C-2T]_[T-1A]_H5.1_A5.1_F5.1_T5.2_[A12C]]	8.06
UCUCUUUGUGUAUUAUUAUCUCUCUU (ssRNA) [Id_ii_S1_P5E.2_K5.1_C5.2_[C-2T]_[T-1G]_H5.1_A5.1_F5.1_T5.2_[A12C]]	3.72
UCUCUUUAUGUAUUAUUAUUUCUCUU (ssRNA) [Id_ii_S1_P5E.2_K5.1_C5.2_[C-2T]_[T-1A]_H5.1_A5.1_F5.1_T5.2_[A12T]]	7.85
UCUCUUCCUGUAUUAUUAAGUCUCUU (ssRNA) [Id_ii_S1_P5E.2_K5.1_C5.2_[T-1C]_H5.1_A5.1_F5.1_T5.2_[T11A]_[A12G]]	14.6
UCUCUUUCUGUAUUAUUAUCUCUCUU (ssRNA) [Id_ii_S1_P5E.2_K5.1_C5.2_[C-2T]_[T-1C]_H5.1_A5.1_F5.1_T5.2_[A12C]]	4.88
UCUCUUUGUACAAUAUCUCUU (ssRNA) [Ib_S1_P4E.1_K4.1_C4.1_H4.1_A4.1_[T5C]_[T7A]_F4.1_T4.1]	1.29
UCUCUUCGUGUAUUAUUAAGUCUCUU (ssRNA) [Id_ii_S1_P5E.2_K5.1_C5.2_[T-1G]_H5.1_A5.1_F5.1_T5.2_[T11A]_[A12G]]	14.8
UCUCUUCCUGUAUUAUUAUGUCUCUU (ssRNA) [Id_ii_S1_P5E.2_K5.1_C5.2_[T-1C]_H5.1_A5.1_F5.1_T5.2_[A12G]]	6.12
UCUCUUUAUGUAUUAUUAGCUCUCUU (ssRNA) [Id_ii_S1_P5E.2_K5.1_C5.2_[C-2T]_[T-1A]_H5.1_A5.1_F5.1_T5.2_[T11G]_[A12C]]	4.56
UCUCUUUAUGUAUUAUUAACUCUCUU (ssRNA) [Id_ii_S1_P5E.2_K5.1_C5.2_[C-2T]_[T-1A]_H5.1_A5.1_F5.1_T5.2_[T11A]_[A12C]]	13.9
UCUCUUUCUGUAUUAUUAAAUCUCUU (ssRNA) [Id_ii_S1_P5E.2_K5.1_C5.2_[C-2T]_[T-1C]_H5.1_A5.1_F5.1_T5.2_[T11A]]	8.35
UCUCUUUGUAUGGUAUCUCUU (ssRNA) [Ib_S1_P4E.1_K4.1_C4.1_H4.1_A4.1_[A6G]_[T7G]_F4.1_T4.1]	14.6
UCUCUUCGUGUAUUAUUAGUUCUCUU (ssRNA) [Id_ii_S1_P5E.2_K5.1_C5.2_[T-1G]_H5.1_A5.1_F5.1_T5.2_[T11G]_[A12T]]	3.02
UCUCUUGUUGUAUUAUUAAAUCUCUU (ssRNA) [Id_ii_S1_P5E.2_K5.1_C5.2_[C-2G]_H5.1_A5.1_F5.1_T5.2_[T11A]]	11.7
UCUCUUCGUGUAUUAUUAAUUCUCUU (ssRNA) [Id_ii_S1_P5E.2_K5.1_C5.2_[T-1G]_H5.1_A5.1_F5.1_T5.2_[T11A]_[A12T]]	10.1
UCUCUUCCUGUAUUAUUAAUUCUCUU (ssRNA) [Id_ii_S1_P5E.2_K5.1_C5.2_[T-1C]_H5.1_A5.1_F5.1_T5.2_[T11A]_[A12T]]	6.56
